Target: T1, HIV-1 Env on the cell surface (HIV-1, strain BG505 (clade A), wild type, UniProt Q2N0S6)
T1 construct: also called cell-surface HIV-1 Env; source: 293T, transfected, on cells
Experiment: flow cytometry on cells
Settings: one partner purified

B1: 1C2 (rabbit monoclonal antibody, IgG) (antibody, V domains shown)
VH: QSLEESGGDLVKPGASLTLTCTASGFSFGWNDYMSWVRQAPGKGLEWIGCIYAGSTRSTYYANWAKGRLTISKTSSTAVTLQMTSLTAADTATYFCARGAVTYDGLGGAYLKHFNLWGPGTLVTVSS
VL: AIKMTQTPSSVSAAVGGTVTVNCRASEDIESYLAWYQQKPGQPPKLLIYDTSKLASGVPSRFKGSGSGTQFALTISGVQCDDAATYYCLYGYISSDRIDFGFGGGTELVVK
notes: also called bNAb 1C2; vax-bNAb 1C2
Q: Does B1 bind?
A: Result: binds
